Experimental data as given in paper PMC3934934, “The Self-Interaction of a Nodavirus Replicase Is Enhanced by Mitochondrial Membrane Lipids” (PLoS ONE, 2014).

Columns and labels:
Assay in all cases: pull-down; MBP fusion protein (1 µM) held on amylose resin, His-tagged protein (1 µM) in vitro translated in rabbit reticulocyte lysate; room temperature, 4 hrs; no lipids; Western blot with anti-His; signals given as % of FL to FL protein A self-interaction
Details in all cases: one partner purified
[1] = molecular target: T1, MBP-protA fragment aa 1–480 (Wuhan nodavirus (WhNV), UniProt Q3KSM3 1-480)
T1 construct: also called 1–480 MBP/protA; source: E. coli strain TB1, purified (amylose resin); not shown: MBP, N-terminal, kept
T1 sequence: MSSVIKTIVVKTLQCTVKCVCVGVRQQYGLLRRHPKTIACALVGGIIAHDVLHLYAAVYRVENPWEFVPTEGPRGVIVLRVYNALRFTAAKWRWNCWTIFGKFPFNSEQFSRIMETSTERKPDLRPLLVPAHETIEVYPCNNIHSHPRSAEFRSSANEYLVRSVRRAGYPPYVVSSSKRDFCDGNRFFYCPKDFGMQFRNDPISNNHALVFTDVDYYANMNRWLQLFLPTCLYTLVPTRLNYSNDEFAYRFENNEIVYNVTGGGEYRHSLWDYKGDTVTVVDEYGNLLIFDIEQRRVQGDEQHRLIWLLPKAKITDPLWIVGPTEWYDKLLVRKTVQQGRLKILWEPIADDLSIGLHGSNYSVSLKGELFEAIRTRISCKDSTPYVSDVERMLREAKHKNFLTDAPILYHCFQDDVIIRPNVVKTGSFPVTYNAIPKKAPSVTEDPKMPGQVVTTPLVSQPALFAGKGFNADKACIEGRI

[2] = molecular target: T2, MBP-protA fragment aa 1–659 (Wuhan nodavirus (WhNV), UniProt Q3KSM3 1-659)
T2 construct: also called 1–659 MBP/protA; source: E. coli strain TB1, purified (amylose resin); not shown: MBP, N-terminal, kept
T2 sequence: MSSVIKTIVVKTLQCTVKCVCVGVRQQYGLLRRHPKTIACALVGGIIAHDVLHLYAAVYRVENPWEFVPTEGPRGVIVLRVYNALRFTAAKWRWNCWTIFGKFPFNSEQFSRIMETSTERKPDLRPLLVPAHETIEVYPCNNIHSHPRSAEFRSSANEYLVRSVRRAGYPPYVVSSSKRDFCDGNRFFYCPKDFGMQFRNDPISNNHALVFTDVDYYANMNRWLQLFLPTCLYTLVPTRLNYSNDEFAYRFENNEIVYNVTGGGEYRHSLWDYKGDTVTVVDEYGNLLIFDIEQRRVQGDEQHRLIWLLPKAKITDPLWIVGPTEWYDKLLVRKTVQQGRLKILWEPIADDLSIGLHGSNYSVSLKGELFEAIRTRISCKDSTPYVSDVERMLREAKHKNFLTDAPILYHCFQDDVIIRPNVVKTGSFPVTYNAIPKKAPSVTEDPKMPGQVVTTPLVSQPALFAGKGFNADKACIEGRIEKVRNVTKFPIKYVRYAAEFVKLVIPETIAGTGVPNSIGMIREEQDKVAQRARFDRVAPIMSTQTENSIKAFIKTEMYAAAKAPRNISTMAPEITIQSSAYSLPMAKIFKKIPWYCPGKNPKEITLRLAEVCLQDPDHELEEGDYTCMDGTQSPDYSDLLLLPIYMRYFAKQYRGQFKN

[3] = molecular target: T3, MBP-protA fragment aa 1–254 (Wuhan nodavirus (WhNV), UniProt Q3KSM3 1-254)
T3 construct: also called 1–254 MBP/protA; source: E. coli strain TB1, purified (amylose resin); not shown: MBP, N-terminal, kept
T3 sequence: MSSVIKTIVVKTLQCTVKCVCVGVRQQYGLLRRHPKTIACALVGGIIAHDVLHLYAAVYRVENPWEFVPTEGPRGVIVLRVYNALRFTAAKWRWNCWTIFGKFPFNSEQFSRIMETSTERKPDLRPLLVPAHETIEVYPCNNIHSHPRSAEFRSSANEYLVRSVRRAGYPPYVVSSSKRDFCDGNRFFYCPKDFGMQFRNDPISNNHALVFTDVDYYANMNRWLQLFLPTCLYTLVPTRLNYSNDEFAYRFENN

[4] = molecular target: T4, MBP-protA fragment aa 1–839 (Wuhan nodavirus (WhNV), UniProt Q3KSM3 1-839)
T4 construct: also called 1–839 MBP/protA; source: E. coli strain TB1, purified (amylose resin); not shown: MBP, N-terminal, kept
T4 sequence: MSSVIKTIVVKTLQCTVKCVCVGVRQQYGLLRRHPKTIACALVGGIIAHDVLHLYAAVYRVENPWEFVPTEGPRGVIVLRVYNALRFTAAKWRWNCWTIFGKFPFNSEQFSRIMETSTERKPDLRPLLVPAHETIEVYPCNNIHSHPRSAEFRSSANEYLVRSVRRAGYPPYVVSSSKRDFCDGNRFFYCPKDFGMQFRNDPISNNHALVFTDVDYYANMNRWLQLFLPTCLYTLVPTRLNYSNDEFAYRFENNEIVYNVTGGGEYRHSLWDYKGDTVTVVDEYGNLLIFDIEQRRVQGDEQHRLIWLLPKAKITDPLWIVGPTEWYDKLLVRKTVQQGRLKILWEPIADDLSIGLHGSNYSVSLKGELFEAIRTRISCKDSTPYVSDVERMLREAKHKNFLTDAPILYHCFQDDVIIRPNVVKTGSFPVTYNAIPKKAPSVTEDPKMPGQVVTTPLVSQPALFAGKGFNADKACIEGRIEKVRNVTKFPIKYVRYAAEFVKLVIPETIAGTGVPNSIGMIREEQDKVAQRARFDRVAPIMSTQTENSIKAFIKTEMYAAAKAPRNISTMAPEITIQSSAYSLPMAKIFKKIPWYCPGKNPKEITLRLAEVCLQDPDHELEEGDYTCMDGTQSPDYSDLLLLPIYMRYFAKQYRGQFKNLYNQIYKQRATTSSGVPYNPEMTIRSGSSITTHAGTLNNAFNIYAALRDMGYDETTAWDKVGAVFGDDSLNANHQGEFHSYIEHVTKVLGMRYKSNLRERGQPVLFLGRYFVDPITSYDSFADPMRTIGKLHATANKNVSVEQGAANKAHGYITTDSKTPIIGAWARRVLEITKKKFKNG

B1: His-tagged WhNV protein A, in vitro translated (natural protein)
chain: MSSVIKTIVVKTLQCTVKCVCVGVRQQYGLLRRHPKTIACALVGGIIAHDVLHLYAAVYRVENPWEFVPTEGPRGVIVLRVYNALRFTAAKWRWNCWTIFGKFPFNSEQFSRIMETSTERKPDLRPLLVPAHETIEVYPCNNIHSHPRSAEFRSSANEYLVRSVRRAGYPPYVVSSSKRDFCDGNRFFYCPKDFGMQFRNDPISNNHALVFTDVDYYANMNRWLQLFLPTCLYTLVPTRLNYSNDEFAYRFENNEIVYNVTGGGEYRHSLWDYKGDTVTVVDEYGNLLIFDIEQRRVQGDEQHRLIWLLPKAKITDPLWIVGPTEWYDKLLVRKTVQQGRLKILWEPIADDLSIGLHGSNYSVSLKGELFEAIRTRISCKDSTPYVSDVERMLREAKHKNFLTDAPILYHCFQDDVIIRPNVVKTGSFPVTYNAIPKKAPSVTEDPKMPGQVVTTPLVSQPALFAGKGFNADKACIEGRIEKVRNVTKFPIKYVRYAAEFVKLVIPETIAGTGVPNSIGMIREEQDKVAQRARFDRVAPIMSTQTENSIKAFIKTEMYAAAKAPRNISTMAPEITIQSSAYSLPMAKIFKKIPWYCPGKNPKEITLRLAEVCLQDPDHELEEGDYTCMDGTQSPDYSDLLLLPIYMRYFAKQYRGQFKNLYNQIYKQRATTSSGVPYNPEMTIRSGSSITTHAGTLNNAFNIYAALRDMGYDETTAWDKVGAVFGDDSLNANHQGEFHSYIEHVTKVLGMRYKSNLRERGQPVLFLGRYFVDPITSYDSFADPMRTIGKLHATANKNVSVEQGAANKAHGYITTDSKTPIIGAWARRVLEITKKKFKNGTGEEQYRCSNAWPQKDEAAIRAAMAAVLEVDEAQLIAQNEAVLKVNSLDQFPVVFDTYYDHKQLAEVDGQLVGTDLHIKEEDERQPETSIDSVPSTGPPPSNGDPNAGGKPTDGPSKGKRKVKGRRPRTAGDPATLRLTDAGSSRRVKPPRKLRPEAKRGGRPIETLVFKNSSLS
notes: also called His-protA; FL His-protA; source: in vitro translated in nuclease-treated rabbit reticulocyte lysates
self-interaction efficiency, % of FL to FL protein A self-interaction [1]: 94% | self-interaction efficiency, % of FL to FL protein A self-interaction [2]: 96% | self-interaction efficiency, % of FL to FL protein A self-interaction [3]: 67% | self-interaction efficiency, % of FL to FL protein A self-interaction [4]: 108%
